Results on one molecule are retold here after patent publication US20110093983A1, “ALGAL GLYCEROL-3 PHOSPHATE ACYLTRANSFERASE” (National Research Council of Canada, priority 2008, published 2011).

In test [1] the test system is Arabidopsis thaliana. As to the kind of experiment: Fatty acid and oil content analysis of T2 seeds from TpGPAT transgenic Arabidopsis. Format: in vivo. The note with it: transgenic Arabidopsis lines (GW), Napin promoter. On the procedure: FIG. 5 graphically depicts the results of the analysis of the fatty acid 16:0 content of T2 seeds from TpGPAT transgenic Arabidopsis. Fatty acid analysis was performed on TpGPAT transformed Arabidopsis seeds. Fatty acid composition (as molar percentage) was determined in the seed oil extracted from 200 T2 seeds of 13 TpGPA:pSE transformed Arabidopsis lines (GW4-GW17). pSE129A empty plasmid transformed wild-type Arabidopsis was used as a control.
FIG. 7 graphically depicts the total oil content of TpGPAT transformed Arabidopsis seeds. Oil contents (as percentage of dry weight) were determined in 200 T2 seeds of the 13 TpGPA:pSE transformed Arabidopsis lines (GW4-12; GW14-17). Wild-type Arabidopsis was used as a control (Con).
The full length coding region of the TpGPAT gene was amplified using pfu DNA polymerase and primers designed with two restriction sites (KpnI and XbaI) added for subsequent cloning. Then, the PCR product was digested and inserted in a plant transformation vector (pSE129A) under the control of a seed-specific promoter (Napin). The binary vector was introduced by electroporation into Agrobacterium tumefaciens strain GV3101 containing helper plasmid pMP90 (Koncz and Schell, 1986). […]

Test [2] concerns Brassica napus. Briefly: Fatty acid analysis of T1 seeds from TpGPAT transgenic Brassica napus. Particulars: 5 transgenic Brassica napus events; wild-type 4.27-4.64%. Format: in vivo. On the procedure:
FIG. 6 graphically depicts the results of the analysis of the fatty acid 16:0 content of T1 seeds from TpGPAT transgenic Brassica napus. Fatty acid analysis was performed on TpGPAT transformed B. napus seeds. Fatty acid composition (as molar percentage) was determined in the seed oil extracted from T1 seeds of five independent TpGPAT:pSE transformed Brassica napus events (GPAT1, 3, 4, 7 and 12). Wild-type B. napus was used as a control.
The full length coding region of the TpGPAT gene was amplified using pfu DNA polymerase and primers designed with two restriction sites (KpnI and XbaI) added for subsequent cloning. Then, the PCR product was digested and inserted in a plant transformation vector (pSE129A) under the control of a seed-specific promoter (Napin). The binary vector was introduced by electroporation into Agrobacterium tumefaciens strain GV3101 containing helper plasmid pMP90 (Koncz and Schell, 1986).
Brassica napus 5-day-old hypocotyls were also transformed with Agrobacterium containing the TpGPAT/pSE129A construct. Transgenic T0 plants were regenerated, selected for resistance to kanamycin and grown in soil. Individual plants were bagged to allow self-pollination. Presence of the TpGPAT and Kan genes in the resistant plants was verified by PCR with the appropriate primers in 18 independent events. T1 seeds from the first set of 5 transgenic events were harvested and analyzed. […]

Test [3] can be described thus: GPAT activity assay of microsomal membrane fractions from yeast gat1 mutant expressing TpGPAT. Format: biochemical, Saccharomyces cerevisiae. On the procedure:
FIG. 2 depicts GPAT activity of TpGPAT1 expressed in yeast gat1 mutant. The microsomal membrane fractions prepared from lysates of the induced yeast cells harboring TpGPAT1 or empty vector pYES2.1 were assayed for GPAT activity with 400 μM [^14C]glycerol 3-phosphate (2.5 nCi/nmol), 45 μM palmitoyl-CoA, 75 mM Tris-HCl, pH 7.5, 1 mM DTT, and 2 mM MgCl2 for 10 min at room temperature. After extraction of the phospholipid products, the radioactivity was measured by scintillation count.
FIG. 3 depicts substrate specificity of TpGPAT1. The microsomal membrane fractions prepared from lysates of the induced yeast cells harboring TpGPAT1 or empty vector pYES2.1 were assayed for GPAT activity with 400 μM [^14C]glycerol 3-phosphate (2.5 nCi/nmol) and different acyl-CoAs as acyl donor. After extraction of the phospholipid products, the radioactivity was measured by scintillation count. […]
Enzyme Assays: GPAT assays were conducted at 30° C. for 10 min. in a 200-pL reaction mixture containing 40 mM Hepes, pH 7.0, 400 pM ^14C-glycerol-3-phosphate (2.5 nCi/nmol), 67.5 pM palmitoyl-CoA and/or stearoyl-CoA or other fatty acyl donors, 1 mM DTT, 2 mM MgCl2, and 2.5 mg/mL BSA unless stated otherwise. […] The formed products were subjected to scintillation counting for radioactivity and thin layer chromatography analysis as described. […]

“Also recorded” adds a separate entry of the source.

B1: TpGPAT1: membrane-bound glycerol-3-phosphate acyltransferase from T. pseudonana, 674 amino acids, SEQ ID NO:2 (nucleotide SEQ ID NO:1) (protein, listed as Thalassiosira pseudonana)
chain: MGVEKKGTMMSELDYTKAQLAFFYIVVLLSLDMLNPVKIFLHVFPAIKSWHIATFAIACMSYIFIVNLRELLYFATKVFFHSILSIFFNDVTVVGRENIPSHGPVIFTSNHANQFMDGLMIMCTCQRTISYLVADKSWNRPIIGHLAWMMGGVPVKRAQDSACKGTGKISIDLNALAGSDAVINVVGKGTSFTSQIKAGDKIRLPNNAIGIKVESIESDESMSLKVEDGVAEVLSSHPFPEYVTYDILPRIDQKDVYQNVLEKLASGGTIGIFPEGGSHDRTDLLPLKVGVALIAYSELEKDGINVPIVPVGLNYFRAHRFRGKATVEFGSPTYIEPSTLADYKKGGADKRRVCNDLLARIENSMRSVIVSVPDFETLQTIHAARRLYRQDGRNETAEQRQDMGRRFAEGYKRVLLQLGGEPPEEWLSLQSRILAYQKELNELGIRDYQVVGLDHEEVELGSESQGHSKADTVLHRMNVFGHIVHLFVIAVLAALPAMLLNLPVGLASRIYSNRRRKVALAASKVKVKGYDVMLSERVLACIVLVPSLWVVYGLLLSLFTSLDGPSLAVCFTCFPLFSYWSIMATESGMVDIKDLRPYVMRMIPSARRRLAALPATRKALRSDLRAMIKKIGPSLGDIYYEKDLNWQKIQMETKRMSMEELDPAQKDEAAKKEE
For the molecule B1, the “16:0 content of T2 seeds compared to non-transformed control” value in test [1] is “More than half of the identified transgenic lines (GW) showed an increase of 16:0”. Moreover, the “16:0 percentage in T1 seeds” value in test [2] is 4.64-6.67%. Moreover, the “Substrate specificity for fatty acyl donors” value in test [3] (different acyl-CoAs as acyl donors (14:0, 16:0, 16:1, 18:0, 18:1, 22:6)) was “highly specific for 16:0; also recorded: highest activity toward 16:0; also recorded: highly specific for saturated C16 fatty acids”. Moreover, the “GPAT activity versus control cells transformed with empty pYES2.1 vector” value in test [3] (microsomal membrane fractions, yeast gat1, palmitoyl (16:0)-CoA as acyl donor) is “about seven”.
